Results reported in publication PMC4530019.

Target: cardiac ryanodine receptor (RyR2) (rat (endogenous in ventricular myocytes)) (UniProt B0LPN4)
Sequence of UniProt B0LPN4 (B0LPN4 whole entry): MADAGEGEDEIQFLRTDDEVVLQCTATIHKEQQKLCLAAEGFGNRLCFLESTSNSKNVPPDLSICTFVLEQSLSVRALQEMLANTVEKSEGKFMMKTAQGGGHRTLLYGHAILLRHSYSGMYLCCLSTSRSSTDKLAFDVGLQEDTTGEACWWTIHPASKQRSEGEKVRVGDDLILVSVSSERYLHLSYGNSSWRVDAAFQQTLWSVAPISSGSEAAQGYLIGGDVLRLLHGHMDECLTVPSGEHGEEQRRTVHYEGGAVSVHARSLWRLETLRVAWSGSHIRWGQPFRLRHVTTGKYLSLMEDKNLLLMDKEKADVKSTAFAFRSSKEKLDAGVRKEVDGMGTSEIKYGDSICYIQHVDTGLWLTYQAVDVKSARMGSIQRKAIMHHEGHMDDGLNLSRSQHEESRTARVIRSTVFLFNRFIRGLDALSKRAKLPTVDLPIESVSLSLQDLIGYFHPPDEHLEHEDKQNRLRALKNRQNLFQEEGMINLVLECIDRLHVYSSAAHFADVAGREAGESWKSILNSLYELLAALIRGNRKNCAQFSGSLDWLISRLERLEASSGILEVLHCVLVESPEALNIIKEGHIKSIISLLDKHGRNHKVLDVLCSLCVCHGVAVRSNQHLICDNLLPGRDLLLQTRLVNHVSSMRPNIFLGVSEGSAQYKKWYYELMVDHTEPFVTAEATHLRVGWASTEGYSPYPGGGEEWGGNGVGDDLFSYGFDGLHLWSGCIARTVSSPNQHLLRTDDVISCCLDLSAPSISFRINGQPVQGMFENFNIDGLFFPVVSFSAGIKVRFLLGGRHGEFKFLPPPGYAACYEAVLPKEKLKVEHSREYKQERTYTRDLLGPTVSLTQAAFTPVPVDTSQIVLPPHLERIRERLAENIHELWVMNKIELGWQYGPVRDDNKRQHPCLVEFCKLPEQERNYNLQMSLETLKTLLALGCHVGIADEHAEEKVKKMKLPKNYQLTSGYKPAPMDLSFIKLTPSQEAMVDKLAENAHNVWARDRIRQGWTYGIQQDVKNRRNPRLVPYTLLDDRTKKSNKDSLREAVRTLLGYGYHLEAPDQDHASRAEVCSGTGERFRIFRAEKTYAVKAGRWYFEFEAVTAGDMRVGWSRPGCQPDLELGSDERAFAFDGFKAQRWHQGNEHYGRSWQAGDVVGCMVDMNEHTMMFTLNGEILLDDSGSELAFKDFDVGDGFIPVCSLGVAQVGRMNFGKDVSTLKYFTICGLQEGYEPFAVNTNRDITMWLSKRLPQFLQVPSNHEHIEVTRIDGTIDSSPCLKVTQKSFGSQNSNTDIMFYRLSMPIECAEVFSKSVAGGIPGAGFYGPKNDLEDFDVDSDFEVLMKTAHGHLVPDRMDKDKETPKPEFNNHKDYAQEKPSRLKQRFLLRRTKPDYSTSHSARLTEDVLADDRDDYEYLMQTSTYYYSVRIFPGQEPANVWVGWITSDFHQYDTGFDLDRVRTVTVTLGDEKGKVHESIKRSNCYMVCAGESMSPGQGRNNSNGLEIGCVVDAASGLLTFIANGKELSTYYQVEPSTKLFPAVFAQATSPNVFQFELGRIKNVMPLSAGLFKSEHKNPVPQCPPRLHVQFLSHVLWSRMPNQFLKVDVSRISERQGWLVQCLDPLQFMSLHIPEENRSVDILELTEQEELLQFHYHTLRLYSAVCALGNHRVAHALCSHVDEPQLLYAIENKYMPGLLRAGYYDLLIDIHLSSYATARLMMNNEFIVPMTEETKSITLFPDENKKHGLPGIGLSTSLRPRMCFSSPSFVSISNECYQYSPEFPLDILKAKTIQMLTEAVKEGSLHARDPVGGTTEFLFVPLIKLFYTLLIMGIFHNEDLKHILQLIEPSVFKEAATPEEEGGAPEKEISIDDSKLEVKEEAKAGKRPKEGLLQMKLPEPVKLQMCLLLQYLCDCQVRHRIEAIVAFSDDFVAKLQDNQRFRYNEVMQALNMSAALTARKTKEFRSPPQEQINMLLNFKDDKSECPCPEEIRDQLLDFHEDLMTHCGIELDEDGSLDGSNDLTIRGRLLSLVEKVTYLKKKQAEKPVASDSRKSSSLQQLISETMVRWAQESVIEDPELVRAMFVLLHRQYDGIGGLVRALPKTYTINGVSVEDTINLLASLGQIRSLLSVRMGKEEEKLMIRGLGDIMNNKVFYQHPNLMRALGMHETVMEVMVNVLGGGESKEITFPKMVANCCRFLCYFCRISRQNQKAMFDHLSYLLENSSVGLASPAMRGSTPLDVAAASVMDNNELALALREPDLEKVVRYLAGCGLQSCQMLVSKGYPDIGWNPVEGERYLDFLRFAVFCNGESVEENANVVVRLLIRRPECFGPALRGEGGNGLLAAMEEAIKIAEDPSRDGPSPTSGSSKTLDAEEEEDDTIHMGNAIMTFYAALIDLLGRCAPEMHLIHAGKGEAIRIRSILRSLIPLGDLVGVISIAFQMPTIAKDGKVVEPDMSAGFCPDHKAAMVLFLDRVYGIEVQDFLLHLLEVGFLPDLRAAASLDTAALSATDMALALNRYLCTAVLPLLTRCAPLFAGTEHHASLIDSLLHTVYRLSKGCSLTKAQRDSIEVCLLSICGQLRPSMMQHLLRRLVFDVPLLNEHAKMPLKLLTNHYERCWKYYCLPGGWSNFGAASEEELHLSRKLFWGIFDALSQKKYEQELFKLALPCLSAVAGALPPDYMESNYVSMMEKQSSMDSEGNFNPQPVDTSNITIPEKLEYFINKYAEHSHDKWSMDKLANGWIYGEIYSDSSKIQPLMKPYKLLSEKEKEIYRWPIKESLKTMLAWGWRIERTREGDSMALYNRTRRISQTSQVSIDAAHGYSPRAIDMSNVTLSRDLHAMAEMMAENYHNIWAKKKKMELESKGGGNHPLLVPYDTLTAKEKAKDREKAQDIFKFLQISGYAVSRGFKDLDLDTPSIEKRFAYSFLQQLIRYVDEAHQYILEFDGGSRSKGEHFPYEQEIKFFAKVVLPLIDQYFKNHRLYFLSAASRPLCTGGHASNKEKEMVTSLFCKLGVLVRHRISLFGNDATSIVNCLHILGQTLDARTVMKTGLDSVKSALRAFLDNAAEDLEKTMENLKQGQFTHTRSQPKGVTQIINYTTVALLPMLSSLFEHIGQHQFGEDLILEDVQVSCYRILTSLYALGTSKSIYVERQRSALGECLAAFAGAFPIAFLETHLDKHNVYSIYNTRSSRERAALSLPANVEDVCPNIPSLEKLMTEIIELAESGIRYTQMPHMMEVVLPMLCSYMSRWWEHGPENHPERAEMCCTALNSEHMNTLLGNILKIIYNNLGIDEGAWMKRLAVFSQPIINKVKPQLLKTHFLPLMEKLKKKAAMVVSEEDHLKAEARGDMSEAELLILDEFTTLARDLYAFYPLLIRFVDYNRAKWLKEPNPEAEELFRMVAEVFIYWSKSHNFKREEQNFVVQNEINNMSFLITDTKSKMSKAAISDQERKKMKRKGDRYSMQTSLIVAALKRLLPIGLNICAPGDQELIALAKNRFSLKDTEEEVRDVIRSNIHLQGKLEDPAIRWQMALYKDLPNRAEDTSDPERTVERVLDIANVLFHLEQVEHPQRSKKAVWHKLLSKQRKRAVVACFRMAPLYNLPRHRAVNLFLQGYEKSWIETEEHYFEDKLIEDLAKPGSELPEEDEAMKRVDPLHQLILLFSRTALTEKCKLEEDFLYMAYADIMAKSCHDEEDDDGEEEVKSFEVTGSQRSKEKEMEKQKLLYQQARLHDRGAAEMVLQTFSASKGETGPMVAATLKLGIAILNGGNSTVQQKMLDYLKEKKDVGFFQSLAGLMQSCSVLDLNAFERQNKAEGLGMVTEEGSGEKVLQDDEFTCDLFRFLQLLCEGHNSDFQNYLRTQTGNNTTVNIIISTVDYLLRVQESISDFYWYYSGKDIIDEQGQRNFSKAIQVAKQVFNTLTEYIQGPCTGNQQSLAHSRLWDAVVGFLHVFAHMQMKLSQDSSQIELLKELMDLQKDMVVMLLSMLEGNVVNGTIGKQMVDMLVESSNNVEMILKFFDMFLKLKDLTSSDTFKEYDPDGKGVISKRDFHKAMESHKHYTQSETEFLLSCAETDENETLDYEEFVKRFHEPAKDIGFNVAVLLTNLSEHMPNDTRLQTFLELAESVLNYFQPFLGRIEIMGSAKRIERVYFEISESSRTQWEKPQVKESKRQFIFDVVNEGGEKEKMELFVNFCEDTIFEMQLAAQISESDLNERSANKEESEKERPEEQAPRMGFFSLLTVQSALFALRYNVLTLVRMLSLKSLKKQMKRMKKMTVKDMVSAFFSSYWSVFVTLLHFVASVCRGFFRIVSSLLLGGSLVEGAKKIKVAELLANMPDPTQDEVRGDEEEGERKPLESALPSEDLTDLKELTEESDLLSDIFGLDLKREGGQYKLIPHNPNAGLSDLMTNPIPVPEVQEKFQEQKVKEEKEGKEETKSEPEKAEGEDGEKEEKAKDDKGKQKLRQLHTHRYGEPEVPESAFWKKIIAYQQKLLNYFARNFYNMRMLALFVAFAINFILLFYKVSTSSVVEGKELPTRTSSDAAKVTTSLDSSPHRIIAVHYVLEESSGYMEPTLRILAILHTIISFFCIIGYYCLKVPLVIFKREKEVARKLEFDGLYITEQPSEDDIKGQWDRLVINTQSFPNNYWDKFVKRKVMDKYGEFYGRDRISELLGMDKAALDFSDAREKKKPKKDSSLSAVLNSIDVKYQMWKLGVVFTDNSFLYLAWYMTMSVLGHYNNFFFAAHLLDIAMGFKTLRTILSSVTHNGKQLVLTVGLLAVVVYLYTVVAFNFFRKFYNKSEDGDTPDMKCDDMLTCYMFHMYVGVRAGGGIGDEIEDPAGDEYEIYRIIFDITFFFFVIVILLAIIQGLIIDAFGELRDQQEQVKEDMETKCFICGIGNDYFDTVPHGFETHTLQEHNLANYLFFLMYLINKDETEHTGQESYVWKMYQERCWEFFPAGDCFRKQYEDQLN

percent reduction of specific Z-line binding against F-CaM that was not oxidized: 20%
Substance: F-CaM pre-incubated in H2O2 (F-CaM^Ox) (from UniProt P0DP23 1-149) (natural protein)
